B1: His-tagged hRpn10^196–306 (domain or fragment, human, UniProt P55036 196-306, looked up)
chain: MLGLGASDFEFGVDPSADPELALALRVSMEEQRQRQEEEARRAAAASAAEAGIATTGTEDSDDALLKMTISQQEFGRTGLPDLSSMTEEEQIAYAMQMSLQGAEFGQAESA
B2: UBQLN2 UBL domain (domain or fragment, human)
chain: APAEPKIIKVTVKTPKEKEEFAVPENSSVQQFKEAISKRFKSQTDQLVLIFAGKILKDQDTLIQHGIHDGLTVHLVIK

How the values were obtained:
M1 diubiquitin = M1 diubiquitin (UniProt P0CG48 1-76; P0CG48 1-76, M1 linkage between the two ubiquitins); experiment: pull-down
[1] = molecular target: B1; experiment: NMR structure
[2] = molecular target: B1; experiment: NMR titration

binding result (M1 diubiquitin) | stoichiometry N [1] | KD of the secondary binding site (UIM-2) [2] | Binder
binds | – | – | B1
– | 2 | 24.8 ± 3.1 µM | B2

From article PMC6389388 (Journal of molecular biology, 2019)
